# Data: US20220088146A1 (PALATIN TECHNOLOGIES, published 2022)
# Numbered stars: 1 amine (or outer) side, 2 acyl side, 3 side chain; on linkers, the order of the positions; unused ones are H or OH. Bridge positions count the residues as written; N and C are the ends. Square brackets hold non-standard residues; d marks the D form. * marks the point of attachment. Cyclohexanecarbonyl = O=C(C1CCCCC1)*; Cyclohexylacetyl = O=C(CC1CCCCC1)*; Cyclopentylacetyl = O=C(CC1CCCC1)*; Cyclopropanecarbonyl = O=C(C1CC1)*; Hydrocinnamoyl = O=C(CCc1ccccc1)*; Suc = O=C(CCC(=O)[*:2])[*:1]; Heptanoyl = CCCCCCC(=O)*; Nle = CCCC[C@H](N)C(=O)O; Dab = NCC[C@H](N)C(=O)O; Dap = NC[C@H](N)C(=O)O; Hexanoyl = CCCCCC(=O)*; Pentanoyl = CCCCC(=O)*; PhAc = O=C(Cc1ccccc1)*; Butyryl = CCCC(=O)*
# B1: cyclo-propanoyl-cyclo(Glu-His-D-Phe-Arg-Dab)-Trp-NH2 (peptide)
# peptide: Cyclopropanecarbonyl-EH[dF]R[Dab]W-NH2
# modifications: lactam 1-5
# SMILES: N=C(N)NCCC[C@@H]1NC(=O)[C@@H](Cc2ccccc2)NC(=O)[C@H](Cc2c[nH]cn2)NC(=O)[C@@H](NC(=O)C2CC2)CCC(=O)NCC[C@@H](C(=O)N[C@@H](Cc2c[nH]c3ccccc23)C(N)=O)NC1=O
# notes: also called 9.19
# B2: cyclo(Suc-His-Phe-Arg-Dab)-Trp-NH2 (peptide)
# peptide: [Suc]HFR[Dab]W-NH2
# modifications: lactam N-5
# SMILES: N=C(N)NCCC[C@@H]1NC(=O)[C@H](Cc2ccccc2)NC(=O)[C@H](Cc2c[nH]cn2)NC(=O)CCC(=O)NCC[C@@H](C(=O)N[C@@H](Cc2c[nH]c3ccccc23)C(N)=O)NC1=O
# notes: also called 9.14
# Biological target: T1, human melanocortin-1 receptor (human, UniProt Q01726 1-317)
# Assay: cell-based or functional assay
# T1 sequence (Q01726 whole entry): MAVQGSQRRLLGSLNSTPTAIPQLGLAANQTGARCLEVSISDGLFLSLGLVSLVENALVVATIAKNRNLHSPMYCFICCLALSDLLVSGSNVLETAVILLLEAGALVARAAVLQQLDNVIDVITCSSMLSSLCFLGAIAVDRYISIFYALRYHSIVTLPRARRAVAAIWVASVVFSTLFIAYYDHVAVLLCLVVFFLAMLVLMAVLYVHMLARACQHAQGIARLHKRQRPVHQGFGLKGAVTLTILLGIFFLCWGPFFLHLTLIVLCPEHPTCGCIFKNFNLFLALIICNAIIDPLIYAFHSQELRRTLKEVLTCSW
MC-1 Emax (average; cAMP HBL),MC-1 EC50 (average; cAMP HBL),Binder
89%,–,"Pentanoyl-EH[dF]R[Dab]W-NH2 (lactam 1-5, also called 9.16) [CH3-(CH2)3-C(═O)-cyclo(Glu-His-D-Phe-Arg-Dab)-Trp-NH2]"
87%,–,"Ac-[Nle]CH[dF]RCW-NH2 (disulfide 2-6, also called 9.5) [Ac-Nle-cyclo(Cys-His-D-Phe-Arg-Cys)-Trp-NH2]"
97%,–,"Ac-[Nle]EH[dF]RKW-NH2 (lactam 2-6, also called 9.1) [Ac-Nle-cyclo(Glu-His-D-Phe-Arg-Lys)-Trp-NH2]"
87%,–,"Heptanoyl-EH[dF]R[Dab]W-NH2 (lactam 1-5, also called 9.18) [CH3-(CH2)5-C(═O)-cyclo(Glu-His-D-Phe-Arg-Dab)-Trp-NH2]"
83%,–,B1
83%,–,"Hydrocinnamoyl-EH[dF]R[Dab]W-NH2 (lactam 1-5, also called 9.24) [phenyl propanoyl-cyclo(Glu-His-D-Phe-Arg-Dab)-Trp-NH2]"
75%,–,"Ac-FEH[dF]R[Dab]W-NH2 (lactam 2-6, also called 9.13) [Ac-Phe-cyclo(Glu-His-D-Phe-Arg-Dab)-Trp-NH2]"
80%,31 nM,B2
91%,–,"Butyryl-EH[dF]R[Dab]W-NH2 (lactam 1-5, also called 9.15) [CH3-(CH2)2-C(═O)-cyclo(Glu-His-D-Phe-Arg-Dab)-Trp-NH2]"
88%,–,"Ac-[Nle]EHFR[Dab]W-NH2 (lactam 2-6, also called 9.8) [Ac-Nle-cyclo(Glu-His-Phe-Arg-Dab)-Trp-NH2]"
83%,–,"Cyclopentylacetyl-EH[dF]R[Dab]W-NH2 (lactam 1-5, also called 9.21) [cyclopentyl acetyl-cyclo(Glu-His-D-Phe-Arg-Dab)-Trp-NH2]"
79%,–,"Cyclohexanecarbonyl-EH[dF]R[Dab]W-NH2 (lactam 1-5, also called 9.20) [cyclo-hexanoyl-cyclo(Glu-His-D-Phe-Arg-Dab)-Trp-NH2]"
85%,–,"Cyclohexylacetyl-EH[dF]R[Dab]W-NH2 (lactam 1-5, also called 9.22) [cyclohexyl acetyl-cyclo(Glu-His-D-Phe-Arg-Dab)-Trp-NH2]"
82%,–,"PhAc-EH[dF]R[Dab]W-NH2 (lactam 1-5, also called 9.23) [phenyl acetyl-cyclo(Glu-His-D-Phe-Arg-Dab)-Trp-NH2]"
90%,–,"Hexanoyl-EH[dF]R[Dab]W-NH2 (lactam 1-5, also called 9.17) [CH3-(CH2)4-C(═O)-cyclo(Glu-His-D-Phe-Arg-Dab)-Trp-NH2]"

# Biological target: melanocortin-2 receptor (UniProt Q01718 1-297)
# Assay: cell-based or functional assay
# Chain of melanocortin-2 receptor (Q01718 whole entry): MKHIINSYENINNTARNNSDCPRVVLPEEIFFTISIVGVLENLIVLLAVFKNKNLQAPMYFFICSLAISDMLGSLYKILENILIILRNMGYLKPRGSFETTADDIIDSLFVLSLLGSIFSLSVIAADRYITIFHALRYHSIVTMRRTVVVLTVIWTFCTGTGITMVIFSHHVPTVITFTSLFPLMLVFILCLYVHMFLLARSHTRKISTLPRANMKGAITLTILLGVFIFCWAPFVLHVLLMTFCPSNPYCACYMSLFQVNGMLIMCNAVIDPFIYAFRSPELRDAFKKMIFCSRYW
row,Functional - CEREP (EC50; nM),Binder
1,> 10000 nM,Ac-[Nle]EH[dF]R[Dap]W-NH2 (lactam 2-6) [Ac-Nle-cyclo(Glu-His-D-Phe-Arg-Dap)-Trp-NH2]
2,> 10000 nM,Ac-SYSMEHFRWGKPV-NH2 (ligand) [α-MSH (Ac-Ser-Tyr-Ser-Met-Glu-His-Phe-Arg-Trp-Gly-Lys-Pro-Val-NH2)]

# Biological target: melanocortin-3 receptor (UniProt P41968 1-323)
# Assay: cell-based or functional assay
# Chain of melanocortin-3 receptor (P41968 whole entry): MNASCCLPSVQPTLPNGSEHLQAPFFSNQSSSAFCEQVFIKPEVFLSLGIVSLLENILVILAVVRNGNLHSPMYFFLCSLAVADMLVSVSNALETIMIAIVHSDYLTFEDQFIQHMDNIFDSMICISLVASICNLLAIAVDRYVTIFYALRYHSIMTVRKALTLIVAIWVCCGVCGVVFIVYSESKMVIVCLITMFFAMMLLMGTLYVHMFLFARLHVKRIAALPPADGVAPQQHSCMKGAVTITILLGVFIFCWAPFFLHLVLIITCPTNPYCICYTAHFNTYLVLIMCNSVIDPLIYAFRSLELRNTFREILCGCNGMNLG
row,Functional - CEREP (EC50; nM),Binder
1,> 10000 nM,Ac-[Nle]EH[dF]R[Dap]W-NH2 (lactam 2-6) [Ac-Nle-cyclo(Glu-His-D-Phe-Arg-Dap)-Trp-NH2]

# Biological target: melanocortin-5 receptor (UniProt P33032 1-325)
# Assay: cell-based or functional assay
# Chain of melanocortin-5 receptor (P33032 whole entry): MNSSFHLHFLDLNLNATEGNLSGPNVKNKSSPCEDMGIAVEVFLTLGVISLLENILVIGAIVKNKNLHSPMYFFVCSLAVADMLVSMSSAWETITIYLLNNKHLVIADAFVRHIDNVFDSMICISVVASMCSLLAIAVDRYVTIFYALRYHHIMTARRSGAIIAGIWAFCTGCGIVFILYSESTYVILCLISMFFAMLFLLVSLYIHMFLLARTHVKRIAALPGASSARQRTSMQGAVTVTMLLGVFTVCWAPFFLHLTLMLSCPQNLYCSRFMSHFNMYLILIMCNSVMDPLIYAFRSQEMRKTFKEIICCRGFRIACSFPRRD
row,Functional - CEREP (EC50; nM),Binder
1,> 10000 nM,Ac-[Nle]EH[dF]R[Dap]W-NH2 (lactam 2-6) [Ac-Nle-cyclo(Glu-His-D-Phe-Arg-Dap)-Trp-NH2]

# Biological target: T1, human melanocortin-1 receptor
# Assay: [I125]-NDP-α-MSH competition, hMC1r HEK-293 membranes
row,Ki,Binder
1,3 nM,B1
2,310 nM,B2

# Biological target: T2, human melanocortin-4 receptor (human, UniProt P32245 1-332)
# T2 construct: whole, on cells; Ki assay used membrane homogenates of HEK-293 cells expressing recombinant hMC4r; also called MC4r; hMC4r
# Assay: [I125]-NDP-α-MSH competition, hMC4r HEK-293 membranes
# T2 sequence (P32245 whole entry): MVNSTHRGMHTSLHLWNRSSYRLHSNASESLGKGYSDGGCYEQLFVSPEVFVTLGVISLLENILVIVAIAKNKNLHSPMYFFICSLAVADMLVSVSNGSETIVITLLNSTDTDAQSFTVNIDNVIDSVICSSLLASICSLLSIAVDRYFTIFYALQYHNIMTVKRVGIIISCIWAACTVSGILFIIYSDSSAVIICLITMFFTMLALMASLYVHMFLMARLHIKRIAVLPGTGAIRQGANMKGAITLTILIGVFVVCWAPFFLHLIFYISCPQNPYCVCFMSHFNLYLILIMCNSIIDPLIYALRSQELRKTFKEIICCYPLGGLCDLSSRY
row,Ki,Binder
1,365 nM,"Pentanoyl-EH[dF]R[Dab]W-NH2 (lactam 1-5, also called 9.16) [CH3-(CH2)3-C(═O)-cyclo(Glu-His-D-Phe-Arg-Dab)-Trp-NH2]"
2,540 nM,"Ac-[Nle]CH[dF]RCW-NH2 (disulfide 2-6, also called 9.5) [Ac-Nle-cyclo(Cys-His-D-Phe-Arg-Cys)-Trp-NH2]"
3,45 nM,"Ac-[Nle]EH[dF]RKW-NH2 (lactam 2-6, also called 9.1) [Ac-Nle-cyclo(Glu-His-D-Phe-Arg-Lys)-Trp-NH2]"
4,100 nM,"Heptanoyl-EH[dF]R[Dab]W-NH2 (lactam 1-5, also called 9.18) [CH3-(CH2)5-C(═O)-cyclo(Glu-His-D-Phe-Arg-Dab)-Trp-NH2]"
5,640 nM,B1
6,285 nM,"Hydrocinnamoyl-EH[dF]R[Dab]W-NH2 (lactam 1-5, also called 9.24) [phenyl propanoyl-cyclo(Glu-His-D-Phe-Arg-Dab)-Trp-NH2]"
7,510 nM,"Ac-FEH[dF]R[Dab]W-NH2 (lactam 2-6, also called 9.13) [Ac-Phe-cyclo(Glu-His-D-Phe-Arg-Dab)-Trp-NH2]"
8,10000 nM,B2
9,890 nM,"Butyryl-EH[dF]R[Dab]W-NH2 (lactam 1-5, also called 9.15) [CH3-(CH2)2-C(═O)-cyclo(Glu-His-D-Phe-Arg-Dab)-Trp-NH2]"
10,10000 nM,"Ac-[Nle]EHFR[Dab]W-NH2 (lactam 2-6, also called 9.8) [Ac-Nle-cyclo(Glu-His-Phe-Arg-Dab)-Trp-NH2]"
11,93 nM,"Cyclopentylacetyl-EH[dF]R[Dab]W-NH2 (lactam 1-5, also called 9.21) [cyclopentyl acetyl-cyclo(Glu-His-D-Phe-Arg-Dab)-Trp-NH2]"
12,165 nM,"Cyclohexanecarbonyl-EH[dF]R[Dab]W-NH2 (lactam 1-5, also called 9.20) [cyclo-hexanoyl-cyclo(Glu-His-D-Phe-Arg-Dab)-Trp-NH2]"
13,63 nM,"Cyclohexylacetyl-EH[dF]R[Dab]W-NH2 (lactam 1-5, also called 9.22) [cyclohexyl acetyl-cyclo(Glu-His-D-Phe-Arg-Dab)-Trp-NH2]"
14,205 nM,"PhAc-EH[dF]R[Dab]W-NH2 (lactam 1-5, also called 9.23) [phenyl acetyl-cyclo(Glu-His-D-Phe-Arg-Dab)-Trp-NH2]"
15,110 nM,"Hexanoyl-EH[dF]R[Dab]W-NH2 (lactam 1-5, also called 9.17) [CH3-(CH2)4-C(═O)-cyclo(Glu-His-D-Phe-Arg-Dab)-Trp-NH2]"
